Where two headings read alike, the source gives them in different places.
Key:
[1] = target: monomeric RAD51 (HumRadA22); experiment: ITC
[2] = target: monomeric RAD51 (HumRadA22)
[3] = target: monomeric RAD51 (HumRadA22); experiment: fluorescence polarisation

| Substance | Kd [1] [nM] | Kd [2] [nM] | Kd [3] [nM] |
| --- | --- | --- | --- |
| GB1-BRC7-8 (peptide) | – | – | 11000 |
| GB1-BRC4-5 (peptide) | – | – | 2100 |

Next, values leading:

| Kd [1] [nM] | Kd [2] [nM] | Kd [3] [nM] | Substance |
| --- | --- | --- | --- |
| 5 | – | – | BRC8-2(S2056A) (peptide) |
| – | 4100 | – | BRC4 with deletion of Lys1530 (peptide) |
| 11 | 21 | 38 | GB1-BRC4 (peptide) |

From paper doi:10.1101/2020.05.14.097071
